Measurements: PMC11620640

What was measured:
[1] = biological target: raccoon dog ACE2 (rdACE2), peptidase domain (PD), wild type (raccoon dog) (UniProt B4XEP4); assay: SPR
[2] = biological target: raccoon dog ACE2 (rdACE2), peptidase domain (PD), wild type (raccoon dog) (UniProt B4XEP4); assay: SPR; BIAcore […], 25°C, PBST (0.005% Tween-20 in PBS); […], single-cycle; 1:1 Langmuir model; […]
[3] = biological target: SARS-CoV-2 Alpha variant spike RBD (UniProt P0DTC2); assay: SPR

Substance	fold decrease of affinity against PT RBD [1] [fold]	Kd [3] [nM]	further results
SARS-CoV-2 Omicron BA.2 spike RBD (from UniProt P0DTC2 319-541) (domain or fragment)	> 10		
SARS-CoV-2 Omicron XBB spike RBD (from UniProt P0DTC2 319-541) (domain or fragment)			fold decrease of affinity against PT RBD [2]: 10 fold
SARS-CoV-2 PT RBD K417N variant (from UniProt P0DTC2 319-541) (domain or fragment)	> 6		
raccoon dog ACE2 (rdACE2), peptidase domain (PD), wild type (from UniProt B4XEP4) E38D		12.4	
raccoon dog ACE2 (rdACE2), peptidase domain (PD), wild type (from UniProt B4XEP4) L24Q		42.9	
raccoon dog ACE2 (rdACE2), peptidase domain (PD), wild type (from UniProt B4XEP4) R353K		59.4	
